Results taken from publication PMC5656675, “Structure based biophysical characterization of the PROPPIN Atg18 shows Atg18 oligomerization upon membrane binding” (Scientific Reports, 2017).

Assays:
[1] = molecular target: the molecule itself; experiment: native MS; purified Atg18 exchanged into 200 mM ammonium acetate; Q-ToF Ultima modified for high mass complexes
[2] = molecular target: the molecule itself; experiment: FRET or BRET; stopped-flow, 0.5 µM acceptor-labelled Atg18 C113 bound to LUVs with PtdIns(3,5)P2 (1 mM total lipid) mixed with 0.5 µM donor-labelled Atg18 C113 free in solution; 25 °C, HP150 buffer with 0.1 mM TCEP; dye pairs Alexa Fluor 488/546 and Oregon Green/Texas Red

B1: Pichia angusta Atg18 (wild type) (natural protein, Pichia angusta (Hansenula polymorpha))
chain: MASPNPLAFEAATAAHEVAASYVTEHKPRKNDNINFANFNQDFSCVSVGYSNGYKIYNCEPFGQCYSKSDGSIGIVEMLFSSSLLAIVGMGEQHSLSPRRLKIINTKRQTTICELTFPGAILAVKLNRERLVVLLEETIYIYDINNMRLLHTIETPSNPNGLIALSPSSENNYLAYPSPQKLAPNPQTEVTLHSNPQTVRNGDVIIFDAKTLQPTSVIEAHRTSLAAIALSKDGLLLATASDKGTIIRVFSVATGIKLYQFRRGTYPTKIYSLAFSPDNRFVIASSATETVHIFRLGEEEAANTIKSANKKARLTKAQVPNPLETSPDIYPHNQHTSSDEDEELNEDEEDLDGDEDEDLEDDAHVPVSLQRGRSSSSTGSFHSSESMTDKLKEPLVDNSRKSVARMLRRTSQSLGRKAAEKMGTYLPPKFSSILEPNRHFASLKVPASKETKTVVGVGSKIWDDLIPSVYLKDDANSITETSEDLVNKKLVHIMVITSEGFFYKFGLDPERGGDCVLLHQQSLFG
notes: Atg18 of Pichia angusta (Hansenula polymorpha), UniProt entry Q5QA94, synthetic gene in pET-28a; also called PaAtg18; source: E. coli, purified (HisTrap, Superdex 200); not shown: His-tag, N-terminal, kept
With B1 the “stoichiometry N” value [1] was at most 4.

B2: Atg18 C113 single cysteine mutant, fluorescently labelled (natural protein, Pichia angusta (Hansenula polymorpha))
chain: MASPNPLAFEAATAAHEVAASYVTEHKPRKNDNINFANFNQDFSAVSVGYSNGYKIYNAEPFGQAYSKSDGSIGIVEMLFSSSLLAIVGMGEQHSLSPRRLKIINTKRQTTICELTFPGAILAVKLNRERLVVLLEETIYIYDINNMRLLHTIETPSNPNGLIALSPSSENNYLAYPSPQKLAPNPQTEVTLHSNPQTVRNGDVIIFDAKTLQPTSVIEAHRTSLAAIALSKDGLLLATASDKGTIIRVFSVATGIKLYQFRRGTYPTKIYSLAFSPDNRFVIASSATETVHIFRLGEEEAANTIKSANKKARLTKAQVPNPLETSPDIYPHNQHTSSDEDEELNEDEEDLDGDEDEDLEDDAHVPVSLQRGRSSSSTGSFHSSESMTDKLKEPLVDNSRKSVARMLRRTSQSLGRKAAEKMGTYLPPKFSSILEPNRHFASLKVPASKETKTVVGVGSKIWDDLIPSVYLKDDANSITETSEDLVNKKLVHIMVITSEGFFYKFGLDPERGGDAVLLHQQSLFG
modifications: C113 labelled with Alexa Fluor 488 C5 maleimide (donor) or Alexa Fluor 546 C5 maleimide (acceptor); in the repeat with Oregon Green 488 maleimide or Texas Red C2 maleimide
notes: Atg18 of Pichia angusta (Hansenula polymorpha), UniProt entry Q5QA94, synthetic gene in pET-28a; single cysteine mutant that keeps C113; That the other four are alanine in it is read from this; Two differently labelled copies of the same protein were mixed; also called C113 mutant; source: E. coli, purified (HisTrap, Superdex 200), labelled with maleimide dye
B2: binds [2].
